From article PMC4067574 (Protein expression and purification, 2010)
Several values for one entry are separate records, joined by “and”; a condition that tells them apart may be missing. Equal values may be shown once.

Target: C3b (UniProt P01024 23-667; P01024 749-1663)
Test: SPR

Chain of C3b (P01024 23-667, chain 1 of 2): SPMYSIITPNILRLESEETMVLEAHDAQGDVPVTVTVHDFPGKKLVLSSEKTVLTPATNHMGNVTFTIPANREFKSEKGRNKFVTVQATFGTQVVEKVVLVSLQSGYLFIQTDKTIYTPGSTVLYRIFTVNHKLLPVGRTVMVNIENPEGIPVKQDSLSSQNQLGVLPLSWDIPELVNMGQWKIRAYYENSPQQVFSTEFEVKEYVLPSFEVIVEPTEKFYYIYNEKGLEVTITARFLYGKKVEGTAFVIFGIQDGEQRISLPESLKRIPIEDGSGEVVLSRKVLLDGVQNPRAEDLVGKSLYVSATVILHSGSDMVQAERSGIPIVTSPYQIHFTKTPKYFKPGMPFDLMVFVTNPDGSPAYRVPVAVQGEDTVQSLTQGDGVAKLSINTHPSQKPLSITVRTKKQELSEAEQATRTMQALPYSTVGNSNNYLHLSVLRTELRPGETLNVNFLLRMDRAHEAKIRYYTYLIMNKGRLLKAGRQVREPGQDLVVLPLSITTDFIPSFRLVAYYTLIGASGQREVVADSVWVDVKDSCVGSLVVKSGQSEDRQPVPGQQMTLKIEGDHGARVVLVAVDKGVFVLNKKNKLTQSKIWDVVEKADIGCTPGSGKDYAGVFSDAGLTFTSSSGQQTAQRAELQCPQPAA
Chain of C3b (P01024 749-1663, chain 2 of 2): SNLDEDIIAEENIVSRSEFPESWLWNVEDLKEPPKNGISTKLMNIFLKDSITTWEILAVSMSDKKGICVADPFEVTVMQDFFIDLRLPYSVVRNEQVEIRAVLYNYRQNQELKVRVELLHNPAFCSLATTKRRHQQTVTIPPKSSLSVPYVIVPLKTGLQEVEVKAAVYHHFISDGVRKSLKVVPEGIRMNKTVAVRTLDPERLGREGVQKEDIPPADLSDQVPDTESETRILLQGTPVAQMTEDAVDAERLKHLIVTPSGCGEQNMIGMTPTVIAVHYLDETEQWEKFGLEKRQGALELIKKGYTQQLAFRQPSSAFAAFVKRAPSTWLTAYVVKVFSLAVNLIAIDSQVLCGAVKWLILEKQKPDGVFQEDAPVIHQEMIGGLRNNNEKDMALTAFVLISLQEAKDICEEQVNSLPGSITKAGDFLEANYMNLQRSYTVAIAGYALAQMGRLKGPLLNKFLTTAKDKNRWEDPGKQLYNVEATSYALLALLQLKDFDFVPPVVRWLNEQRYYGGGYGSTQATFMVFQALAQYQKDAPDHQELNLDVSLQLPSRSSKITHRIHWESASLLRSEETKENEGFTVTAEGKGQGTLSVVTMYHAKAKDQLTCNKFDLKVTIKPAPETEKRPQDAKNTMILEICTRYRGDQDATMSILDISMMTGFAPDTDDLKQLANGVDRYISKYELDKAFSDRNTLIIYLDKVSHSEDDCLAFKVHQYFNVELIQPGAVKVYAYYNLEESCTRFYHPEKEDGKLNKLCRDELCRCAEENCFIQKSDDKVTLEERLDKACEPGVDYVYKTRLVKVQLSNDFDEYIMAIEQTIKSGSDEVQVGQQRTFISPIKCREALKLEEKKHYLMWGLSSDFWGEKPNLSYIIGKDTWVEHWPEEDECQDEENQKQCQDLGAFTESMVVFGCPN

Binder	Kd
recombinant human complement factor H, V62,Y402 variant (rFH), Endo Hf-deglycosylated (natural protein, UniProt P08603 19-1231, looked up, eight residual N-acetylglucosamine moieties after endoglycosidase H (Endo Hf) digestion of the N-linked glycans) EDCNELPPRRNTEILTGSWSDQTYPEGTQAIYKCRPGYRSLGNVIMVCRKGEWVALNPLRKCQKRPCGHPGDTPFGTFTLTGGNVFEYGVKAVYTCNEGYQLLGEINYRECDTDGWTNDIPICEVVKCLPVTAPENGKIVSSAMEPDREYHFGQAVRFVCNSGYKIEGDEEMHCSDDGFWSKEKPKCVEISCKSPDVINGSPISQKIIYKENERFQYKCNMGYEYSERGDAVCTESGWRPLPSCEEKSCDNPYIPNGDYSPLRIKHRTGDEITYQCRNGFYPATRGNTAKCTSTGWIPAPRCTLKPCDYPDIKHGGLYHENMRRPYFPVAVGKYYSYYCDEHFETPSGSYWDHIHCTQDGWSPAVPCLRKCYFPYLENGYNQNYGRKFVQGKSIDVACHPGYALPKAQTTVTCMENGWSPTPRCIRVKTCSKSSIDIENGFISESQYTYALKEKAKYQCKLGYVTADGETSGSITCGKDGWSAQPTCIKSCDIPVFMNARTKNDFTWFKLNDTLDYECHDGYESNTGSTTGSIVCGYNGWSDLPICYERECELPKIDVHLVPDRKKDQYKVGEVLKFSCKPGFTIVGPNSVQCYHFGLSPDLPICKEQVQSCGPPPELLNGNVKEKTKEEYGHSEVVEYYCNPRFLMKGPNKIQCVDGEWTTLPVCIVEESTCGDIPELEHGWAQLSSPPYYYGDSVEFNCSESFTMIGHRSITCIHGVWTQLPQCVAIDKLKKCKSSNLIILEEHLKNKKEFDHNSNIRYRCRGKEGWIHTVCINGRWDPEVNCSMAQIQLCPPPPQIPNSHNMTTTLNYRDGEKVSVLCQENYLIQEGEEITCKDGRWQSIPLCVEKIPCSQPPQIEHGTINSSRSSQESYAHGTKLSYTCEGGFRISEENETTCYMGKWSSPPQCEGLPCKSPPEISHGVVAHMSDSYQYGEEVTYKCFEGFGIDGPAIAKCLGEKWSHPPSCIKTDCLSLPSFENAIPMGEKKDVYKAGEQVTYTCATYYKMDGASNVTCINSRWTGRPTCRDTSCVNPPTVQNAYIVSRQMSKYPSGERVRYQCRSPYEMFGDEEVMCLNGNWTEPPQCKDSTGKCGPPPPIDNGDITSFPLSVYAPASSVEYQCQNLYQLEGNKRITCRNGQWSEPPKCLHPCVISREIMENYNIALRWTAKQKLYSRTGESVEFVCKRGYRLSSRSHTLRTTCWDGKLEYPTCAKR	1500 nM and 1400 nM
plasma-purified human complement factor H (reference FH) (natural protein, UniProt P08603 19-1231, looked up, eight N-glycans (native protein)) EDCNELPPRRNTEILTGSWSDQTYPEGTQAIYKCRPGYRSLGNVIMVCRKGEWVALNPLRKCQKRPCGHPGDTPFGTFTLTGGNVFEYGVKAVYTCNEGYQLLGEINYRECDTDGWTNDIPICEVVKCLPVTAPENGKIVSSAMEPDREYHFGQAVRFVCNSGYKIEGDEEMHCSDDGFWSKEKPKCVEISCKSPDVINGSPISQKIIYKENERFQYKCNMGYEYSERGDAVCTESGWRPLPSCEEKSCDNPYIPNGDYSPLRIKHRTGDEITYQCRNGFYPATRGNTAKCTSTGWIPAPRCTLKPCDYPDIKHGGLYHENMRRPYFPVAVGKYYSYYCDEHFETPSGSYWDHIHCTQDGWSPAVPCLRKCYFPYLENGYNQNYGRKFVQGKSIDVACHPGYALPKAQTTVTCMENGWSPTPRCIRVKTCSKSSIDIENGFISESQYTYALKEKAKYQCKLGYVTADGETSGSITCGKDGWSAQPTCIKSCDIPVFMNARTKNDFTWFKLNDTLDYECHDGYESNTGSTTGSIVCGYNGWSDLPICYERECELPKIDVHLVPDRKKDQYKVGEVLKFSCKPGFTIVGPNSVQCYHFGLSPDLPICKEQVQSCGPPPELLNGNVKEKTKEEYGHSEVVEYYCNPRFLMKGPNKIQCVDGEWTTLPVCIVEESTCGDIPELEHGWAQLSSPPYYYGDSVEFNCSESFTMIGHRSITCIHGVWTQLPQCVAIDKLKKCKSSNLIILEEHLKNKKEFDHNSNIRYRCRGKEGWIHTVCINGRWDPEVNCSMAQIQLCPPPPQIPNSHNMTTTLNYRDGEKVSVLCQENYLIQEGEEITCKDGRWQSIPLCVEKIPCSQPPQIEHGTINSSRSSQESYAHGTKLSYTCEGGFRISEENETTCYMGKWSSPPQCEGLPCKSPPEISHGVVAHMSDSYQYGEEVTYKCFEGFGIDGPAIAKCLGEKWSHPPSCIKTDCLSLPSFENAIPMGEKKDVYKAGEQVTYTCATYYKMDGASNVTCINSRWTGRPTCRDTSCVNPPTVQNAYIVSRQMSKYPSGERVRYQCRSPYEMFGDEEVMCLNGNWTEPPQCKDSTGKCGPPPPIDNGDITSFPLSVYAPASSVEYQCQNLYQLEGNKRITCRNGQWSEPPKCLHPCVISREIMENYNIALRWTAKQKLYSRTGESVEFVCKRGYRLSSRSHTLRTTCWDGKLEYPTCAKR	2900 nM
